Laboratory results from the FLAb antibody collection (doi:10.7554/elife.23156).

B1: scFv; the commonest letter at each place (parent)
chain 1: EVKLDETGGGLVQPGRPMKLSCVASGFTFSDYWMNWVRQSPEKGLEWVAQIRNKPYNYETYYSDSVKGRFTISRDDSKSSVYLQMNNLRVEDMGIYYCTGSYYGMDYWGQGTSVTVS
chain 2: DVVMTQTPLSLPVSLGDQASISCRSSQSLVHSNGNTYLRWYLQKPGQSPKVLIYKVSNRFSGVPDRFSGSGSGTDFTLKISRVEAEDLGVYFCSQSTHVPWTFGGGTKLEIK

Key:
[1] = variants of: B1; assay: Kd (Tite-Seq); settings: with fluorescein; format: scFv 4-4-20, heavy + light
[2] = variants of: B1; assay: yeast surface expression (ratio to wild type); higher = more expressed; settings: format: scFv 4-4-20, heavy + light

Row | Variant | Kd [1] [µM] | yeast surface expression [2]
1 | chain 1 S30C V37D | 2.01 | 1.73
2 | chain 1 T28S V37S | 0.00785 | 0.757
3 | chain 1 Y107G W108L G109E | ≥ 10 | 0.331
4 | chain 1 D31T M34Y | 0.0494 | 0.706
5 | chain 1 Y103H G109M | ≥ 10 | 0.304
6 | chain 1 Y107G W108A | ≥ 10 | 0.528
7 | chain 1 Y107R | 0.102 | 0.767
8 | chain 1 Y107Q | 0.0194 | 0.757
9 | chain 1 Y107G | ≥ 10 | 0.544
10 | chain 1 S101H W108Y | ≥ 10 | 0.408
11 | chain 1 Y32A | 0.00993 | 1.15
12 | chain 1 G100R Y103V W108N | ≥ 10 | 0.274
13 | chain 1 S101P D106G W108F | ≥ 10 | 0.244
14 | chain 1 G100E Y102S W108I | 0.0302 | 0.245
15 | chain 1 D31Y W33R | ≥ 10 | 0.325
16 | chain 1 Y32K M34C | ≥ 10 | 0.91
17 | chain 1 W33T W36Y | ≥ 10 | 0.79
18 | chain 1 S30L N35T | ≥ 10 | 0.699
19 | chain 1 V37T | 0.00606 | 0.626
20 | chain 1 D31V M34E | 0.676 | 2.76
21 | chain 1 M34K W36C | ≥ 10 | 0.509
22 | chain 1 W33A N35S W36M | ≥ 10 | 0.823
23 | chain 1 Y103F G104R W108Y | ≥ 10 | 0.139
24 | chain 1 Y32H V37T | ≥ 10 | 0.874

Row | Variant | Kd [1] [µM] | yeast surface expression [2]
25 | chain 1 Y102N G104I | ≥ 10 | 0.859
26 | chain 1 Y102F G109N | ≥ 10 | 0.27
27 | chain 1 Y107V W108D | ≥ 10 | 0.425
28 | chain 1 G104V D106P | ≥ 10 | 0.232
29 | chain 1 Y102C G109A | 2.47 | 0.619
30 | chain 1 D31C V37K | ≥ 10 | 0.453
31 | chain 1 D31I W33D | ≥ 10 | 0.632
32 | chain 1 D31C W33G | ≥ 10 | 0.385
33 | chain 1 T28A D31W | 0.00638 | 0.862
34 | chain 1 Y103M | 0.0015 | 1.27
35 | chain 1 Y103H | 0.0132 | 1.1
36 | chain 1 S30C M34V | 0.00827 | 0.65
37 | chain 1 Y32G M34P | ≥ 10 | 0.545
38 | chain 1 G100I G109A | ≥ 10 | 0.429
39 | chain 1 G100I G109I | ≥ 10 | 0.25
40 | chain 1 G104M | ≥ 10 | 0.571
41 | chain 1 G104I | ≥ 10 | 0.325
42 | chain 1 Y102S G109Y | ≥ 10 | 0.248
43 | chain 1 Y102S G109S | 0.00293 | 1.12
44 | chain 1 S30A N35Y | ≥ 10 | 0.655
45 | chain 1 M105W W108K | 2.88 | 0.363
46 | chain 1 T28K Y32V | ≥ 10 | 0.858
47 | chain 1 G100L W108Q | ≥ 10 | 0.477
48 | chain 1 Y103F W108I | ≤ 0.000316 | 0.885

Row | Variant | Kd [1] [µM] | yeast surface expression [2]
49 | chain 1 Y103N G104Q | ≥ 10 | 0.766
50 | chain 1 Y102H G104F W108Y | ≥ 10 | 0.283
51 | chain 1 Y102P G104S M105H | ≥ 10 | 0.325
52 | chain 1 T28G Y32M | ≥ 10 | 1.24
53 | chain 1 Y103W M105T | ≥ 10 | 0.915
54 | chain 1 M34W N35M | ≥ 10 | 0.653
55 | chain 1 G100K D106V | ≥ 10 | 0.171
56 | chain 1 S101C G104N G109R | ≥ 10 | 0.263
57 | chain 1 M34H V37W | ≥ 10 | 0.602
58 | chain 1 D31N W36C | ≥ 10 | 0.275
59 | chain 1 S101D Y107I | ≥ 10 | 1.02
60 | chain 1 T28H Y32I | ≥ 10 | 0.92
61 | chain 1 D106C W108H | ≥ 10 | 0.583
62 | chain 1 Y102R G109L | ≥ 10 | 0.279
63 | chain 1 S101I G104T | ≥ 10 | 0.4
64 | chain 1 G104S W108E | ≥ 10 | 0.198
65 | chain 1 N35I W36L | ≥ 10 | 2.65
66 | chain 1 G100H D106C | ≥ 10 | 0.222
67 | chain 1 M105Y D106A | ≥ 10 | 0.432
68 | chain 1 D31N M34A | 0.00194 | 0.614
69 | chain 1 N35F V37D | ≥ 10 | 0.704
70 | chain 1 W36Y V37I | 0.0205 | 0.75
71 | chain 1 Y102A Y103K | 4.14 | 1.15
72 | chain 1 G100W G104L W108M | ≥ 10 | 0.108

Row | Variant | Kd [1] [µM] | yeast surface expression [2]
73 | chain 1 G109K | ≥ 10 | 0.229
74 | chain 1 Y32S M34K V37D | ≥ 10 | 0.882
75 | chain 1 D31G Y32D | ≥ 10 | 0.803
76 | chain 1 Y103F M105T | ≥ 10 | 1.01
77 | chain 1 D106N Y107F | 0.00361 | 0.715
78 | chain 1 S101F G104I | ≥ 10 | 0.187
79 | chain 1 S30T V37W | ≥ 10 | 0.671
80 | chain 1 D31S Y32W | ≥ 10 | 0.83
81 | chain 1 Y32E V37Y | ≥ 10 | 0.806
82 | chain 1 S30E W33K | ≥ 10 | 0.771
83 | chain 1 S30V D31M | 0.0372 | 0.223
84 | chain 1 M105N D106P | ≥ 10 | 0.2
85 | chain 1 G104V M105E | ≥ 10 | 0.637
86 | chain 1 D106Y G109D | ≥ 10 | 0.224
87 | chain 1 Y103T W108P | ≥ 10 | 0.468
88 | chain 1 T28H V37L | 3.43 | 0.691
89 | chain 1 T28L S30A | 0.00175 | 1.11
90 | chain 1 G104K Y107N | ≥ 10 | 0.424
91 | chain 1 F29A W33I | ≥ 10 | 0.852
92 | chain 1 F29A W33N | ≥ 10 | 0.741
93 | chain 1 W108E G109V | ≥ 10 | 0.33
94 | chain 1 T28D V37Q | 0.000804 | 0.726
95 | chain 1 D31H Y32S | 8.56 | 0.802
96 | chain 1 F29L W33A | ≥ 10 | 0.763

Row | Variant | Kd [1] [µM] | yeast surface expression [2]
97 | chain 1 F29N V37D | ≥ 10 | 0.229
98 | chain 1 G100L D106L | ≥ 10 | 0.395
99 | chain 1 S101I G109I | ≥ 10 | 0.219
100 | chain 1 G104E W108G | ≥ 10 | 0.296
101 | chain 1 Y102W Y107S | 0.0944 | 0.557
102 | chain 1 G100W D106C | ≥ 10 | 0.437
103 | chain 1 M34S W36K | ≥ 10 | 0.646
104 | chain 1 Y32W W36A | ≥ 10 | 0.204
105 | chain 1 N35S V37E | ≥ 10 | 0.574
106 | chain 1 M105E D106C | ≥ 10 | 0.779
107 | chain 1 G100R Y103I | ≥ 10 | 0.418
108 | chain 1 F29R S30L | ≥ 10 | 0.654
109 | chain 1 S30N M34I | 0.00293 | 0.954
110 | chain 1 S101Y Y102P | ≥ 10 | 0.326
111 | chain 1 Y103M W108M | 0.000333 | 1.13
112 | chain 1 Y102Q Y103A | 8.13 | 0.994
113 | chain 1 S101I | ≥ 10 | 0.521
114 | chain 1 W33V N35T | ≥ 10 | 0.89
115 | chain 1 G104R M105C | ≥ 10 | 0.315
116 | chain 1 W33I N35W | ≥ 10 | 0.803
